Measurements: patent publication US20220025071A1 (BIOMOLECULAR, published 2022)

B1: Rc66SIDE (one-arm antibody) (antibody, human IgG1, kappa)
light: QIVLSQSPAILSASPGEKVTMTCRASSSVSYIHWFQQKPGSSPKPWIYATSNLASGVPVRFSGSGSGTSYSLTISRVEAEDAATYYCQQWTSNPPTFGGGTKLEIKRTVAAPSVFIFPPSDEQLKSGTASVVCLLNNFYPREAKVQWKVDNALQSGNSQESVTEQDSKDSTYSLSSTLTLSKADYEKHKVYACEVTHQGLSSPVTKSFNRGEC
heavy: QVQLQQPGAELVKPGASVKMSCKASGYTFTSYNMHWVKQTPGRGLEWIGAIYPGNGDTSYNQKFKGKATLTADKSSSTAYMQLSSLTSEDSAVYYCARSTYYGGDWYFNVWGAGTTVTVSAASTKGPSVFPLAPSSKSTSGGTAALGCLVKDYFPEPVTVSWNSGALTSGVHTFPAVLQSSGLYSLSSVVTVPSSSLGTQTYICNVNHKPSNTKVDKKAEPKSCDKTHTCPPCPAPELLGGPDVFLFPPKPKDTLMISRTPEVTCVVVDVSHEDPEVKFNWYVDGVEVHNAKTKPREEQYNSTYRVVSVLTVLHQDWLNGKEYKCKVSNKALPAPEEKTISKAKGQPREPQVYVLPPSRDELTKNQVSLLCLVKGFYPSDIAVEWESNGQPENNYLTWPPVLDSDGSFFLYSKLTVDKSRWQQGNVFSCSVMHEALHNHYTQKSLSLSPGK
chain: CPPCPAPELLGGPDVFLFPPKPKDTLMISRTPEVTCVVVDVSHEDPEVKFNWYVDGVEVHNAKTKPREEQYNSTYRVVSVLTVLHQDWLNGKEYKCKVSNKALPAPEEKTISKAKGQPREPQVYVYPPSRDELTKNQVSLTCLVKGFYPSDIAVEWESNGQPENNYKTTPPVLDSDGSFALVSKLTVDKSRWQQGNVFSCSVMHEALHNHYTQKSLSLSPGK
B2: Rc66SIDE-P4-Rc66SIDE (antibody, human IgG1, kappa)
light: QIVLSQSPAILSASPGEKVTMTCRASSSVSYIHWFQQKPGSSPKPWIYATSNLASGVPVRFSGSGSGTSYSLTISRVEAEDAATYYCQQWTSNPPTFGGGTKLEIKRTVAAPSVFIFPPSDEQLKSGTASVVCLLNNFYPREAKVQWKVDNALQSGNSQESVTEQDSKDSTYSLSSTLTLSKADYEKHKVYACEVTHQGLSSPVTKSFNRGEC
heavy: QVQLQQPGAELVKPGASVKMSCKASGYTFTSYNMHWVKQTPGRGLEWIGAIYPGNGDTSYNQKFKGKATLTADKSSSTAYMQLSSLTSEDSAVYYCARSTYYGGDWYFNVWGAGTTVTVSAASTKGPSVFPLAPSSKSTSGGTAALGCLVKDYFPEPVTVSWNSGALTSGVHTFPAVLQSSGLYSLSSVVTVPSSSLGTQTYICNVNHKPSNTKVDKKAEPKSCDKTHTCPPCPAPELLGGPDVFLFPPKPKDTLMISRTPEVTCVVVDVSHEDPEVKFNWYVDGVEVHNAKTKPREEQYNSTYRVVSVLTVLHQDWLNGKEYKCKVSNKALPAPEEKTISKAKGQPREPQVYVLPPSRDELTKNQVSLLCLVKGFYPSDIAVEWESNGQPENNYLTWPPVLDSDGSFFLYSKLTVDKSRWQQGNVFSCSVMHEALHNHYTQKSLSLSPGK
chain: CPPCPAPELLGGPDVFLFPPKPKDTLMISRTPEVTCVVVDVSHEDPEVKFNWYVDGVEVHNAKTKPREEQYNSTYRVVSVLTVLHQDWLNGKEYKCKVSNKALPAPEEKTISKAKGQPREPQVYVYPPSRDELTKNQVSLTCLVKGFYPSDIAVEWESNGQPENNYKTTPPVLDSDGSFALVSKLTVDKSRWQQGNVFSCSVMHEALHNHYTQKSLSLSPGK
B3: Rc66SIDE-P16-Rc66SIDE (antibody, human IgG1, kappa)
light: QIVLSQSPAILSASPGEKVTMTCRASSSVSYIHWFQQKPGSSPKPWIYATSNLASGVPVRFSGSGSGTSYSLTISRVEAEDAATYYCQQWTSNPPTFGGGTKLEIKRTVAAPSVFIFPPSDEQLKSGTASVVCLLNNFYPREAKVQWKVDNALQSGNSQESVTEQDSKDSTYSLSSTLTLSKADYEKHKVYACEVTHQGLSSPVTKSFNRGEC
heavy: QVQLQQPGAELVKPGASVKMSCKASGYTFTSYNMHWVKQTPGRGLEWIGAIYPGNGDTSYNQKFKGKATLTADKSSSTAYMQLSSLTSEDSAVYYCARSTYYGGDWYFNVWGAGTTVTVSAASTKGPSVFPLAPSSKSTSGGTAALGCLVKDYFPEPVTVSWNSGALTSGVHTFPAVLQSSGLYSLSSVVTVPSSSLGTQTYICNVNHKPSNTKVDKKAEPKSCDKTHTCPPCPAPELLGGPDVFLFPPKPKDTLMISRTPEVTCVVVDVSHEDPEVKFNWYVDGVEVHNAKTKPREEQYNSTYRVVSVLTVLHQDWLNGKEYKCKVSNKALPAPEEKTISKAKGQPREPQVYVLPPSRDELTKNQVSLLCLVKGFYPSDIAVEWESNGQPENNYLTWPPVLDSDGSFFLYSKLTVDKSRWQQGNVFSCSVMHEALHNHYTQKSLSLSPGK
chain: CPPCPAPELLGGPDVFLFPPKPKDTLMISRTPEVTCVVVDVSHEDPEVKFNWYVDGVEVHNAKTKPREEQYNSTYRVVSVLTVLHQDWLNGKEYKCKVSNKALPAPEEKTISKAKGQPREPQVYVYPPSRDELTKNQVSLTCLVKGFYPSDIAVEWESNGQPENNYKTTPPVLDSDGSFALVSKLTVDKSRWQQGNVFSCSVMHEALHNHYTQKSLSLSPGK
B4: Rc66SIDE-P28-Rc66SIDE (antibody, human IgG1, kappa)
light: QIVLSQSPAILSASPGEKVTMTCRASSSVSYIHWFQQKPGSSPKPWIYATSNLASGVPVRFSGSGSGTSYSLTISRVEAEDAATYYCQQWTSNPPTFGGGTKLEIKRTVAAPSVFIFPPSDEQLKSGTASVVCLLNNFYPREAKVQWKVDNALQSGNSQESVTEQDSKDSTYSLSSTLTLSKADYEKHKVYACEVTHQGLSSPVTKSFNRGEC
heavy: QVQLQQPGAELVKPGASVKMSCKASGYTFTSYNMHWVKQTPGRGLEWIGAIYPGNGDTSYNQKFKGKATLTADKSSSTAYMQLSSLTSEDSAVYYCARSTYYGGDWYFNVWGAGTTVTVSAASTKGPSVFPLAPSSKSTSGGTAALGCLVKDYFPEPVTVSWNSGALTSGVHTFPAVLQSSGLYSLSSVVTVPSSSLGTQTYICNVNHKPSNTKVDKKAEPKSCDKTHTCPPCPAPELLGGPDVFLFPPKPKDTLMISRTPEVTCVVVDVSHEDPEVKFNWYVDGVEVHNAKTKPREEQYNSTYRVVSVLTVLHQDWLNGKEYKCKVSNKALPAPEEKTISKAKGQPREPQVYVLPPSRDELTKNQVSLLCLVKGFYPSDIAVEWESNGQPENNYLTWPPVLDSDGSFFLYSKLTVDKSRWQQGNVFSCSVMHEALHNHYTQKSLSLSPGK
chain: CPPCPAPELLGGPDVFLFPPKPKDTLMISRTPEVTCVVVDVSHEDPEVKFNWYVDGVEVHNAKTKPREEQYNSTYRVVSVLTVLHQDWLNGKEYKCKVSNKALPAPEEKTISKAKGQPREPQVYVYPPSRDELTKNQVSLTCLVKGFYPSDIAVEWESNGQPENNYKTTPPVLDSDGSFALVSKLTVDKSRWQQGNVFSCSVMHEALHNHYTQKSLSLSPGK
B5: B19c66AAC9 (one-arm antibody) (antibody, human IgG1, kappa)
light: not shown
heavy: QVQLQQSGAELVRPGSSVKISCKASGYAFSSYWMNWVKQRPGQGLEWIGQIWPGDGDTNYNGKFKGKATLTADESSSTAYMQLSSLASEDSAVYFCARRETTTVGRYYYAMDYWGQGTTVTVSSASTKGPSVFPLAPSSKSTSGGTAALGCLVKDYFPEPVTVSWNSGALTSGVHTFPAVLQSSGLYSLSSVVTVPSSSLGTQTYICNVNHKPSNTKVDKKVEPKSCDKTHTCPPCPAPKRRGGPSVFLFPPKPKDTLMISRTPEVTCVVVDVSHEDPEVKFNWYVDGVEVHNAKTKPREEQYNSTYRVVSVLTVLHQDWLNGKEYKCKVSNKALPAPIEKTISKAKGQPREPQVYVLPPSRDELTKNQVSLLCLVKGFYPSDIAVEWESNGQPENNYLTWPPVLDSDGSFFLYSKLTVDKSRWQQGNVFSCSVMHEALHNHYTQKSLSLSPGK
chain: CPPCPAPEDEGGPSVFLFPPKPKDTLMISRTPEVTCVVVDVSHEDPEVKFNWYVDGVEVHNAKTKPREEQYNSTYRVVSVLTVLHQDWLNGKEYKCKVSNKALPAPIEKTISKAKGQPREPQVYVYPPSRDELTKNQVSLTCLVKGFYPSDIAVEWESNGQPENNYKTTPPVLDSDGSFALVSKLTVDKSRWQQGNVFSCSVMHEALHNHYTQKSLSLSPGK

Tests used:
[1] = biological target: T1, Recombinant human Fc gamma receptor IIa, CD32a 131H (human, UniProt P12318 36-218)
T1 sequence (looked up): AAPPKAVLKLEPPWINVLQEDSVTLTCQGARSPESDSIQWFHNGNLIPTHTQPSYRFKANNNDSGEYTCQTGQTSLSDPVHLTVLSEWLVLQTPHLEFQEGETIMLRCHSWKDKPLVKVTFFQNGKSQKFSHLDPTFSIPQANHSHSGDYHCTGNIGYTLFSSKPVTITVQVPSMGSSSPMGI

[2] = biological target: Recombinant human Fc gamma receptor IIIa, CD16a 158V (human, UniProt P08637 17-208)
Recombinant human Fc gamma receptor IIIa, CD16a 158V, sequence (P08637 17-208 F176V limits assumed): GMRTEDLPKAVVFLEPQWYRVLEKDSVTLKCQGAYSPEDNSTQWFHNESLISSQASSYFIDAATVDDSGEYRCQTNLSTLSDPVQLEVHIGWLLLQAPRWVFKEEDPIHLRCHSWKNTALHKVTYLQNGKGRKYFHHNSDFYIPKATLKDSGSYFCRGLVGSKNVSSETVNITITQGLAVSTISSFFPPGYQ

[3] = biological target: T2, Recombinant human Fc gamma receptor IIb/c, CD32b/c (human, UniProt P31994 46-217)
T2 sequence (looked up): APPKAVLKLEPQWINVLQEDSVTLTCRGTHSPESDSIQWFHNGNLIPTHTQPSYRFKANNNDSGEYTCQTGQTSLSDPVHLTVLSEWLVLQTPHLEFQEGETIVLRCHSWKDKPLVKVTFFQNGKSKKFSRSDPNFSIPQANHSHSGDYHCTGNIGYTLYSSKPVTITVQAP

[4] = biological target: Recombinant human Fc gamma receptor IIIa, CD16a 158F (human, UniProt P08637 17-208)
Recombinant human Fc gamma receptor IIIa, CD16a 158F, sequence (P08637 17-208 limits assumed): as the sequence (P08637 17-208 F176V limits assumed) above, with V160F counted along it

[5] = biological target: Recombinant human Fc gamma receptor IIIb, CD16b (human, UniProt O75015 17-200)
Recombinant human Fc gamma receptor IIIb, CD16b, sequence (O75015 17-200 limits assumed): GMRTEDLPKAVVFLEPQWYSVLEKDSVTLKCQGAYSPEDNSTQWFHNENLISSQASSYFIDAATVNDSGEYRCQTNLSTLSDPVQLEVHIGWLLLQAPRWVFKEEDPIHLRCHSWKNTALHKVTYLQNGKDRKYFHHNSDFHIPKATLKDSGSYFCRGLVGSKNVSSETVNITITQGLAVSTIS

[6] = biological target: T3, Recombinant human Fc gamma receptor IIa, CD32a 131R (human, UniProt P12318 36-218)
T3 sequence (looked up): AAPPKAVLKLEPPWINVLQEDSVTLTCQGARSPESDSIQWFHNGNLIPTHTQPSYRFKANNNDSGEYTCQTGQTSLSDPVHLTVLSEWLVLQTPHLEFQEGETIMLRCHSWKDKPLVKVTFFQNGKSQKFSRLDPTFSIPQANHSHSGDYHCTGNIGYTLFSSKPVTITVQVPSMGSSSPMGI

CD20 Lipoparticles = biological target: T4, CD20 Lipoparticles (UniProt P11836 1-297)
T4 sequence (looked up): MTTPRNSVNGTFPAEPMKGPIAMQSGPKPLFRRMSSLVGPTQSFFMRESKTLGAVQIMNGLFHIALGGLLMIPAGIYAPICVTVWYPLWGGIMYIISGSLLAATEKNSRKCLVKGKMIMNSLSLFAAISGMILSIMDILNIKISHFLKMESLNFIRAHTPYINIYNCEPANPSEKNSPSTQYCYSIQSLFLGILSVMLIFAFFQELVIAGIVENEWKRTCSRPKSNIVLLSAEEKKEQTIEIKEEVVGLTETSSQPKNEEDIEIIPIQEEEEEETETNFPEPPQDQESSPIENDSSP

[7] = biological target: Recombinant human Fc gamma receptor I, CD64 (human, UniProt P12314 16-288)
Recombinant human Fc gamma receptor I, CD64, sequence (P12314 16-288 limits assumed): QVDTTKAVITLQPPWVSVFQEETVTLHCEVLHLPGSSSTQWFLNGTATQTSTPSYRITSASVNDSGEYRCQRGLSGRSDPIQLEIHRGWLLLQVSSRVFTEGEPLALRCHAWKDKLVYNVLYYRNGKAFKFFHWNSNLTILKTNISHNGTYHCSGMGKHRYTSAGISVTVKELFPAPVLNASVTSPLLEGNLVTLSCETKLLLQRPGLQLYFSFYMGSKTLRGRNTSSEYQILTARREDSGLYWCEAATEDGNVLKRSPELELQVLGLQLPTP

CD19 = biological target: T5, CD19 (UniProt P15391 20-291)
T5 sequence (looked up): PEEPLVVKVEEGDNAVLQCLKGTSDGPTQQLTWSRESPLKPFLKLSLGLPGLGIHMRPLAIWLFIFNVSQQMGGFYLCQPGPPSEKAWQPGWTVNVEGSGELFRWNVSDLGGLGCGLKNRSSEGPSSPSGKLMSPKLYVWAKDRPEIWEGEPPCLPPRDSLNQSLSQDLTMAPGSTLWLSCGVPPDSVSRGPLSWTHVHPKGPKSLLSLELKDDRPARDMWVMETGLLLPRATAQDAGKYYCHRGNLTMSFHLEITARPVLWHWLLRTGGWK

Row | Binder | Kd [1] [nM] | Kd [2] [nM] | Kd [3] [nM] | Kd [4] [nM] | Kd [5] [nM] | Kd [6] [nM] | Kd (CD20 Lipoparticles) [nM] | Kd [7] [nM] | Kd (CD19) [nM]
1 | B1 | 255 | 46.2 | 253 | 76.8 | 163 | 202 | 21.4 | – | –
2 | B2 | 2.54 | 1.14 | 3.17 | 3.87 | 1.05 | 4.93 | < 0.001 | < 0.001 | –
3 | B3 | 0.808 | 0.257 | 0.556 | 2.71 | < 0.001 | 1.83 | < 0.001 | < 0.001 | –
4 | B4 | 5.42 | 4.98 | 7.28 | 6.62 | 5.64 | 8.11 | < 0.001 | 1.14 | –
5 | B5 | – | – | – | – | – | – | – | – | 21
